Results published in patent US20240287138A1 (Merck Sharp & Dohme, published 2024).
Numbered stars: 1 amine (or outer) side, 2 acyl side, 3 side chain; on linkers, the order of the positions; unused ones are H or OH. Bridge positions count the residues as written; N and C are the ends. Square brackets hold non-standard residues; d marks the D form. bhcLeu = (1R,3S)-3-aminocyclopentane-1-carboxylic acid, O=C([C@@H]1CC[C@H](N[*:1])C1)[*:2]; dPro4cPr = (R)-5-Azaspiro[2.4]heptane-6-carboxylic acid, O=C([C@H]1CC2(CC2)CN1[*:1])[*:2]; FX1 = N5-(Pyridin-3-yl)-L-glutamine, O=C(CC[C@H](N[*:1])C(=O)[*:2])Nc1cccnc1; Trp(βS-Me,7-OMe) = COc1cccc2c([C@H](C)[C@H](N)C(=O)O)c[nH]c12; Phe(4-CH2SO3H) = N[C@@H](Cc1ccc(CS(=O)(=O)O)cc1)C(=O)O; Trp(7-Cl) = N[C@@H](Cc1c[nH]c2c(Cl)cccc12)C(=O)O; Phe(4-CONH2) = NC(=O)c1ccc(C[C@H](N)C(=O)O)cc1; Phe(4-COOH) = N[C@@H](Cc1ccc(C(=O)O)cc1)C(=O)O; Trp(7-aza) = N[C@@H](Cc1c[nH]c2ncccc12)C(=O)O; Pip(5R-OH) = O=C(O)[C@@H]1CC[C@@H](O)CN1; Tyr(2-F) = N[C@@H](Cc1ccc(O)cc1F)C(=O)O; AEF = NCCOc1ccc(C[C@H](N)C(=O)O)cc1; Val(3-OH) = CC(C)(O)[C@H](N)C(=O)O; Pip(4-aza) = O=C(O)[C@@H]1CNCCN1; 4Pal = N[C@@H](Cc1ccncc1)C(=O)O; NMeE = CN[C@@H](CCC(=O)O)C(=O)O; NMeS = CN[C@@H](CO)C(=O)O; αMeS = C[C@](N)(CO)C(=O)O; Nle = CCCC[C@H](N)C(=O)O; Pip2c = not defined here; Bhv = not defined here; Sar = CNCC(=O)O

Target: T1, TNFR1 on THP-1 Lucia NF-κB cells (UniProt P19438 30-455, limits assumed)
T1 sequence (looked up): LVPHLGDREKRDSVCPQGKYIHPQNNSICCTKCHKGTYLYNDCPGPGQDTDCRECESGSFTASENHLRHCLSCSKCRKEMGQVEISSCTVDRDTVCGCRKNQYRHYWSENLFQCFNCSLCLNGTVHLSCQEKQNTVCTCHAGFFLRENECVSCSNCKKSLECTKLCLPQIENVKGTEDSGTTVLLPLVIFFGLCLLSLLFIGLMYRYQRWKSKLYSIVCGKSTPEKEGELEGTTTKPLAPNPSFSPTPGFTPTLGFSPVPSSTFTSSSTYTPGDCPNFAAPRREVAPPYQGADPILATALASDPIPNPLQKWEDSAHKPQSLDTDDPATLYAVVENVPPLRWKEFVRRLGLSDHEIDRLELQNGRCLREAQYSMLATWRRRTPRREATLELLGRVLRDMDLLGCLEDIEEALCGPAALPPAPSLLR
Assay: cell-based or functional assay

B1: SEQ ID NO. 145 (peptide)
peptide: cyclo([bhcLeu][Nle][4Pal][Pip(5R-OH)]W[NMeE]N[AEF][Trp(7-Cl)][αMeS][Phe(4-CONH2)]Y[Sar][Trp(βS-Me,7-OMe)])
SMILES: CCCC[C@@H]1NC(=O)[C@@H]2CC[C@@H](C2)NC(=O)[C@H]([C@@H](C)c2c[nH]c3c(OC)cccc23)NC(=O)CN(C)C(=O)[C@H](Cc2ccc(O)cc2)NC(=O)[C@H](Cc2ccc(C(N)=O)cc2)NC(=O)[C@](C)(CO)NC(=O)[C@H](Cc2c[nH]c3c(Cl)cccc23)NC(=O)[C@H](Cc2ccc(OCCN)cc2)NC(=O)[C@H](CC(N)=O)NC(=O)[C@H](CCC(=O)O)N(C)C(=O)[C@H](Cc2c[nH]c3ccccc23)NC(=O)[C@@H]2CC[C@@H](O)CN2C(=O)[C@H](Cc2ccncc2)NC1=O
  THP-1 IC50: 0.8 nM

B2: SEQ ID NO. 158 (peptide)
peptide: {CH2CO}-[Nle][4Pal][Pip2c][Trp(7-aza)][NMeE]N[4Pal][Trp(7-Cl)][αMeS][Phe(4-COOH)][TyrOCF3][Sar][Trp(βS-Me,7-OMe)]C-NH2
modifications: thioether N-14; reading uncertain; also: printed as cyclo(ClAc-Nle-4Pal-Pip2c-Trp7az-NMeE-N-4Pal-Trp7Cl-aMeS-Phe4COOH-TyrOCF3-Sar-SbMeW7OMe-C)-NH2
  THP-1 IC50: 5.3 nM

B3: SEQ ID NO. 164 (peptide)
peptide: {CH2CO}-[Nle][Phe(4-CONH2)][Val(3-OH)][Trp(7-aza)][NMeE]N[4Pal][Trp(7-Cl)][αMeS][Phe(4-COOH)]Y[Sar][Trp(βS-Me,7-OMe)]C-NH2
modifications: thioether N-14
SMILES: CCCC[C@@H]1NC(=O)CSC[C@@H](C(N)=O)NC(=O)[C@H]([C@@H](C)c2c[nH]c3c(OC)cccc23)NC(=O)CN(C)C(=O)[C@H](Cc2ccc(O)cc2)NC(=O)[C@H](Cc2ccc(C(=O)O)cc2)NC(=O)[C@](C)(CO)NC(=O)[C@H](Cc2c[nH]c3c(Cl)cccc23)NC(=O)[C@H](Cc2ccncc2)NC(=O)[C@H](CC(N)=O)NC(=O)[C@H](CCC(=O)O)N(C)C(=O)[C@H](Cc2c[nH]c3ncccc23)NC(=O)[C@H](C(C)(C)O)NC(=O)[C@H](Cc2ccc(C(N)=O)cc2)NC1=O
  THP-1 IC50: 3.6 nM

B4: SEQ ID NO. 166 (peptide)
peptide: cyclo([bhcLeu][FX1][4Pal][NMeS]W[NMeE]N[4Pal][Trp(7-Cl)][αMeS][Phe(4-COOH)]Y[Sar][Trp(βS-Me,7-OMe)])
SMILES: COc1cccc2c([C@H](C)[C@@H]3NC(=O)CN(C)C(=O)[C@H](Cc4ccc(O)cc4)NC(=O)[C@H](Cc4ccc(C(=O)O)cc4)NC(=O)[C@](C)(CO)NC(=O)[C@H](Cc4c[nH]c5c(Cl)cccc45)NC(=O)[C@H](Cc4ccncc4)NC(=O)[C@H](CC(N)=O)NC(=O)[C@H](CCC(=O)O)N(C)C(=O)[C@H](Cc4c[nH]c5ccccc45)NC(=O)[C@H](CO)N(C)C(=O)[C@H](Cc4ccncc4)NC(=O)[C@H](CCC(=O)Nc4cccnc4)NC(=O)[C@@H]4CC[C@@H](C4)NC3=O)c[nH]c12
  THP-1 IC50: 2.7 nM

B5: SEQ ID NO. 167 (peptide)
peptide: {CH2CO}-[Nle][4Pal][Pip(4-aza)]W[dPro4cPr]N[4Pal][Trp(7-Cl)][αMeS][Phe(4-COOH)]Y[Sar][Trp(βS-Me,7-OMe)]C-NH2
modifications: thioether N-14
SMILES: CCCC[C@@H]1NC(=O)CSC[C@@H](C(N)=O)NC(=O)[C@H]([C@@H](C)c2c[nH]c3c(OC)cccc23)NC(=O)CN(C)C(=O)[C@H](Cc2ccc(O)cc2)NC(=O)[C@H](Cc2ccc(C(=O)O)cc2)NC(=O)[C@](C)(CO)NC(=O)[C@H](Cc2c[nH]c3c(Cl)cccc23)NC(=O)[C@H](Cc2ccncc2)NC(=O)[C@H](CC(N)=O)NC(=O)[C@H]2CC3(CC3)CN2C(=O)[C@H](Cc2c[nH]c3ccccc23)NC(=O)[C@@H]2CNCCN2C(=O)[C@H](Cc2ccncc2)NC1=O
  THP-1 IC50: 2.6 nM

B6: SEQ ID NO. 171 (peptide)
peptide: cyclo([bhcLeu][Nle][4Pal][Pip(4-aza)]W[NMeE]N[Phe(4-CH2SO3H)][Trp(7-Cl)][αMeS][Phe(4-COOH)]Y[Sar][Trp(βS-Me,7-OMe)])
SMILES: CCCC[C@@H]1NC(=O)[C@@H]2CC[C@@H](C2)NC(=O)[C@H]([C@@H](C)c2c[nH]c3c(OC)cccc23)NC(=O)CN(C)C(=O)[C@H](Cc2ccc(O)cc2)NC(=O)[C@H](Cc2ccc(C(=O)O)cc2)NC(=O)[C@](C)(CO)NC(=O)[C@H](Cc2c[nH]c3c(Cl)cccc23)NC(=O)[C@H](Cc2ccc(CS(=O)(=O)O)cc2)NC(=O)[C@H](CC(N)=O)NC(=O)[C@H](CCC(=O)O)N(C)C(=O)[C@H](Cc2c[nH]c3ccccc23)NC(=O)[C@@H]2CNCCN2C(=O)[C@H](Cc2ccncc2)NC1=O
  THP-1 IC50: 0.9 nM

B7: SEQ ID NO. 175 (peptide)
peptide: cyclo([bhcLeu][Nle][4Pal][Pip(4-aza)]W[NMeE]N[4Pal][Trp(7-Cl)][αMeS][Phe(4-COOH)][Tyr(2-F)][Sar][Trp(βS-Me,7-OMe)])
SMILES: CCCC[C@@H]1NC(=O)[C@@H]2CC[C@@H](C2)NC(=O)[C@H]([C@@H](C)c2c[nH]c3c(OC)cccc23)NC(=O)CN(C)C(=O)[C@H](Cc2ccc(O)cc2F)NC(=O)[C@H](Cc2ccc(C(=O)O)cc2)NC(=O)[C@](C)(CO)NC(=O)[C@H](Cc2c[nH]c3c(Cl)cccc23)NC(=O)[C@H](Cc2ccncc2)NC(=O)[C@H](CC(N)=O)NC(=O)[C@H](CCC(=O)O)N(C)C(=O)[C@H](Cc2c[nH]c3ccccc23)NC(=O)[C@@H]2CNCCN2C(=O)[C@H](Cc2ccncc2)NC1=O
  THP-1 IC50: 0.9 nM

B8: SEQ ID NO. 177 (peptide)
peptide: {CH2CO}-[Nle][PyrimAla][Bhv][Trp(7-aza)][NMeE]N[4Pal][Trp(7-Cl)][αMeS][Phe(4-COOH)]Y[Sar][Trp(βS-Me,7-OMe)]C-NH2
modifications: thioether N-14; reading uncertain; also: printed as cyclo(ClAc-Nle-PyrimAla-Bhv-Trp7az-NMeE-N-4Pal-Trp7Cl-aMeS-Phe4COOH-Y-Sar-SbMeW7OMe-C)-NH2
  THP-1 IC50: 3.3 nM

B9: SEQ ID NO. 178 (peptide)
peptide: cyclo([bhcLeu][Nle][4Pal][Pip(4-aza)]W[NMeE]N[4Pal][Trp(7-Cl)][αMeS][Phe(4-COOH)]H[Sar][Trp(βS-Me,7-OMe)])
SMILES: CCCC[C@@H]1NC(=O)[C@@H]2CC[C@@H](C2)NC(=O)[C@H]([C@@H](C)c2c[nH]c3c(OC)cccc23)NC(=O)CN(C)C(=O)[C@H](Cc2c[nH]cn2)NC(=O)[C@H](Cc2ccc(C(=O)O)cc2)NC(=O)[C@](C)(CO)NC(=O)[C@H](Cc2c[nH]c3c(Cl)cccc23)NC(=O)[C@H](Cc2ccncc2)NC(=O)[C@H](CC(N)=O)NC(=O)[C@H](CCC(=O)O)N(C)C(=O)[C@H](Cc2c[nH]c3ccccc23)NC(=O)[C@@H]2CNCCN2C(=O)[C@H](Cc2ccncc2)NC1=O
  THP-1 IC50: 3.3 nM
